Test results as given in patent US20230174655A1 (published 2023).

Assays:
[1] = target: T1, FcγRIIa type H extracellular domain with C-terminal His tag (human, UniProt P12318 34-217); assay: SPR (Biacore), antibody captured, FcgR analyte
T1 construct: extracellular domain; also called FcRIIaH; FcgRIIaH; not shown: His tag at the C terminus
T1 sequence (looked up): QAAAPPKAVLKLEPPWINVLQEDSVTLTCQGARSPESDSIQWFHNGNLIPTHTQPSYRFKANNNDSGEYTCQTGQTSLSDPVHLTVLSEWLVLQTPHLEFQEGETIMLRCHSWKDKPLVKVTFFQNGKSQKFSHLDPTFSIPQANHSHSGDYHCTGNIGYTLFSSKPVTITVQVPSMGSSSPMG
From the text: (§1) In the table, SEQ ID NO refers to the SEQ ID NO of the H chain of the evaluated variant, and alteration refers to the alteration introduced into IL6R-B3 (SEQ ID NO: 40). […] Furthermore, KD(IIaR)/KD(IIb) and KD(IIaH)/KD(IIb) in the table respectively represent the value obtained by dividing the KD value of each variant for FcγRIIaR by the KD value of each variant for FcγRIIb, and the value obtained by dividing the KD value of each variant for FcγRIIaH by the KD value of each variant for FcγRIIb. KD(IIb) of the parent polypeptide/KD(IIb) of the altered polypeptide refers to the value obtained by dividing the KD value of the parent polypeptide for FcγRIIb by the KD value of each variant for FcγRIIb.
(§2) Kinetic analyses for calculating the KD values of each altered antibody for FcγR were performed according to the following method. First, antibodies of interest were captured onto the above-mentioned sensor chips, and an Fcγ receptor diluted with the running buffer was allowed to interact. The Biacore™ Evaluation Software was used to globally fit the measured results to the obtained sensorgram using the 1:1 Langmuir binding model, and the association rate constant ka (L/mol/s) and the dissociation rate constant kd (1/s) were calculated; and from those values the dissociation constants KD (mol/L) were calculated.

[2] = target: FcγRIIa type R extracellular domain with C-terminal His tag (human, UniProt P12318 34-217); assay: SPR (Biacore), antibody captured on chip, FcγR extracellular domain as analyte
From the text: as §1, §2

[3] = target: T2, FcγRIIIa type V extracellular domain with C-terminal His tag (human, UniProt P08637 17-208); assay: SPR (Biacore), antibody captured, FcgR analyte
T2 construct: extracellular domain; also called FcIIIaV; FcgRIIIaV; not shown: His tag at the C terminus
T2 sequence (P08637 17-208 F176V): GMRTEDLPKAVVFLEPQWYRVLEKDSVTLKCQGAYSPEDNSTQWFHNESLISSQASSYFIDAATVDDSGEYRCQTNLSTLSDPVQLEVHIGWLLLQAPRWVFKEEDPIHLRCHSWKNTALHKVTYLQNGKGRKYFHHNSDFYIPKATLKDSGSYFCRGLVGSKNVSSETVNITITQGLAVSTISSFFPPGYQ
From the text: as §1, §2

[4] = target: T3, FcγRIIb extracellular domain with C-terminal His tag (human, UniProt P31994 43-217); assay: SPR (Biacore), antibody captured, FcgR analyte
T3 construct: extracellular domain; also called FcRIIb; FcgRIIb; not shown: His tag at the C terminus
T3 sequence (looked up): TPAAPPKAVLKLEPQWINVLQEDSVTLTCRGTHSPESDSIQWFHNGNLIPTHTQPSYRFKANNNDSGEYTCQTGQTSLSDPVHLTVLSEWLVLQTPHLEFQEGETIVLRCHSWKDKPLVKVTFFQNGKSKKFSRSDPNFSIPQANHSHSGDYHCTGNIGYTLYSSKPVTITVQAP
From the text: as §1, §2

[5] = target: T4, FcγRIIa type R extracellular domain with C-terminal His tag (human, UniProt P12318 34-217); assay: SPR (Biacore), antibody captured, FcgR analyte
T4 chain: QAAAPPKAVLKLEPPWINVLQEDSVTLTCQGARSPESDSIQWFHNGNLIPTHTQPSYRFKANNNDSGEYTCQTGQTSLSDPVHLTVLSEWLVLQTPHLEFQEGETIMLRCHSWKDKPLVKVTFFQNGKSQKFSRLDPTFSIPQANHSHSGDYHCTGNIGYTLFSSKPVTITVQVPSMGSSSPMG
From the text: as §1, §2

B1: IL6R-BF146/IL6R-L (antibody, human IgG1, kappa)
heavy: QVQLQESGPGLVKPSETLSLTCAVSGHSISHDHAWSWVRQPPGEGLEWIGFISYSGITNYNPSLQGRVTISRDNSKNTLYLQMNSLRAEDTAVYYCARSLARTTAMDYWGEGTLVTVSSASTKGPSVFPLAPSSKSTSGGTAALGCLVKDYFPEPVTVSWNSGALTSGVHTFPAVLQSSGLYSLSSVVTVPSSSLGTQTYICNVNHKPSNTKVDKKVEPKSCDKTHTCPPCPAPEYLGDDSVFLFPPKPKDTLMISRTPEVTCVVVDVSHEDPEVKFNWYVDGVEVHNAKTKPREEQYNSTYRVVSVLTVLHQDWLNGKEYKCKVSNAALPAPIEKTISKAKGQPREPQVYTLPPSRDELTKNQVSLTCLVKGFYPSDIAVEWESNGQPENNYKTTPPVLDSDGSFFLYSKLTVDKSRWQQGNVFSCSVMHEALHNHYTQESLSLSP
light: not shown
notes: alteration printed: L234Y/G237D/P238D/K326A; copies: 2 + 2
- Kd [1]: 10 µM

B2: IL6R-BF212/IL6R-L (antibody, human IgG1, kappa)
heavy: QVQLQESGPGLVKPSETLSLTCAVSGHSISHDHAWSWVRQPPGEGLEWIGFISYSGITNYNPSLQGRVTISRDNSKNTLYLQMNSLRAEDTAVYYCARSLARTTAMDYWGEGTLVTVSSASTKGPSVFPLAPSSKSTSGGTAALGCLVKDYFPEPVTVSWNSGALTSGVHTFPAVLQSSGLYSLSSVVTVPSSSLGTQTYICNVNHKPSNTKVDKKVEPKSCDKTHTCPPCPAPDLLGGDSVFLFPPKPKDTLMISRTPEVTCVVVDVSDEDGEVKFNWYVDGVEVHNAKTKPREEQDNSTYRVVSVLTVLHQDWLNGKEYKCKVSNKALPRPIEKTISKAKGQPREPQVYTLPPSRDELTKNQVSLTCLVKGFYPSDIAVEWESNGQPENNYKTTPPVLDSDGSFFLYSKLTVDKSRWQQGNVFSCSVMHEALHNHYTQESLSLSP
light: not shown
notes: Anti-IL-6 receptor IgG1 Fc variant; 'B233D' is read as E233D
- Kd [2]: 0.035 µM

B3: IL6R-BF195/IL6R-L (antibody, human IgG1, kappa)
heavy: QVQLQESGPGLVKPSETLSLTCAVSGHSISHDHAWSWVRQPPGEGLEWIGFISYSGITNYNPSLQGRVTISRDNSKNTLYLQMNSLRAEDTAVYYCARSLARTTAMDYWGEGTLVTVSSASTKGPSVFPLAPSSKSTSGGTAALGCLVKDYFPEPVTVSWNSGALTSGVHTFPAVLQSSGLYSLSSVVTVPSSSLGTQTYICNVNHKPSNTKVDKKVEPKSCDKTHTCPPCPAPDYLGDDSVFLFPPKPKDTLMISRTPEVTCVVVDVSDEDGEVKFNWYVDGVEVHNAKTKPREEQDNSTYRVVSVLTVLHQDWLNGKEYKCKVSNAALPKPIEKTISKAKGQPREPQVYTLPPSRDELTKNQVSLTCLVKGFYPSDIAVEWESNGQPENNYKTTPPVLDSDGSFFLYSKLTVDKSRWQQGNVFSCSVMHEALHNHYTQESLSLSP
light: not shown
notes: copies: 2 + 2
- Kd [3]: 3.1 µM
- Kd [4]: 50 µM
- Kd [5]: 0.91 µM

B4: IL6R-BF209/IL6R-L (antibody, human IgG1, kappa)
heavy: QVQLQESGPGLVKPSETLSLTCAVSGHSISHDHAWSWVRQPPGEGLEWIGFISYSGITNYNPSLQGRVTISRDNSKNTLYLQMNSLRAEDTAVYYCARSLARTTAMDYWGEGTLVTVSSASTKGPSVFPLAPSSKSTSGGTAALGCLVKDYFPEPVTVSWNSGALTSGVHTFPAVLQSSGLYSLSSVVTVPSSSLGTQTYICNVNHKPSNTKVDKKVEPKSCDKTHTCPPCPAPELLGDDSVFLFPPKPKDTLMISRTPEVTCVVVDVSDEDGEVKFNWYVDGVEVHNAKTKPREEQYNSTYRVVSVLTVLHQDWLNGKEYKCKVSNAALPRPIEKTISKAKGQPREPQVYTLPPSRDELTKNQVSLTCLVKGFYPSDIAVEWESNGQPENNYKTTPPVLDSDGSFFLYSKLTVDKSRWQQGNVFSCSVMHEALHNHYTQESLSLSP
light: not shown
notes: Anti-IL-6 receptor IgG1 Fc variant
- Kd [2]: 12 µM
